These results are taken from IntAct's records for PubMed 16343974.

B1: Membrane protein (Human SARS coronavirus), P59596 (parent)
chain: MADNGTITVEELKQLLEQWNLVIGFLFLAWIMLLQFAYSNRNRFLYIIKLVFLWLLWPVTLACFVLAAVYRINWVTGGIAIAMACIVGLMWLSYFVASFRLFARTRSMWSFNPETNILLNVPLRGTIVTRPLMESELVIGAVIIRGHLRMAGHSLGRCDIKDLPKEITVATSRTLSYYKLGASQRVGTDSGFAAYNRYRIGNYKLNTDHAGSNDNIALLVQ

The variants in this test derive from B1. The conditions noted are these: with ncap_sars N.
As for L218A;L219A, the “effect of a mutation on the interaction” value is “with no effect”.
